Measured values published in paper PMC7921601.

How the values were obtained:
[1] = molecular target: AF555-CLIC1C24 (CLIC1 W23F, C59A, C89A, C178A, C191A, C223A, labelled with Alexa Fluor 555 at C24) (UniProt O00299); test: FRET or BRET; single-molecule FRET by TIRF microscopy; AF555-CLIC1C24 (1 μM) with AF647-αBcC176 (2 μM) for 20 h at 37 °C in 50 mM phosphate buffer pH 7.4, diluted 1:1000, CLIC1 held on the coverslip by an anti-6X His-tag antibody; imaged at about 20 °C
[2] = molecular target: AF488-αBc_(C176) (human alphaB-crystallin with an additional C-terminal cysteine, labelled with Alexa Fluor 488) (human); test: single-molecule TIRF with photobleaching step analysis; αBcC176 in the absence of CLIC1C24, with or without cross-linking, diluted for TIRF microscopy; size of the oligomers
[3] = molecular target: AF647-CLIC1C24 (CLIC1 W23F, C59A, C89A, C178A, C191A, C223A, labelled with Alexa Fluor 647 at C24) (UniProt O00299); test: two-colour single-molecule TIRF colocalisation with photobleaching step analysis; AF647-CLIC1C24 (1 μM) with AF488-αBcC176 (2 μM) at 37 °C in 50 mM phosphate buffer pH 7.4; early timepoints (0.25-0.5 h); diluted 1:1000, CLIC1 held by an anti-6X His-tag antibody; conditions: scale: αBc subunits per CLIC1 subunit
[4] = molecular target: AF647-CLIC1C24 (CLIC1 W23F, C59A, C89A, C178A, C191A, C223A, labelled with Alexa Fluor 647 at C24) (UniProt O00299); test: two-colour single-molecule TIRF colocalisation with photobleaching step analysis; AF647-CLIC1C24 (1 μM) with AF488-αBcC176 (2 μM) at 37 °C in 50 mM phosphate buffer pH 7.4; later timepoints (1-10 h); diluted 1:1000, CLIC1 held by an anti-6X His-tag antibody; with or without cross-linking before dilution

Row | Substance | FRET efficiency (E) [1] | stoichiometry N [2] [subunits] | stoichiometry N [3] | percent of CLIC1C24 colocalized with αBcC176 (maximum, after 4 h) [4] [%]
1 | AF647-αBc_(C176) (human alphaB-crystallin with an additional C-terminal cysteine, labelled with Alexa Fluor 647) (natural protein) | 0.8 to 1 |  |  | 
2 | AF488-αBc_(C176) (human alphaB-crystallin with an additional C-terminal cysteine, labelled with Alexa Fluor 488) (natural protein) |  | < 10 | 1 | 50
